Measured values published in publication PMC4829300 (RNA Biology, 2016).
One block for each molecule: values may come before it.

Assays:
Prp43 = assay: fluorescence anisotropy
[1] = test system: Prp43;Cmg1 (Saccharomyces cerevisiae?;Saccharomyces cerevisiae?); assay: fluorescence anisotropy
Prp43 92–767 = Prp43 92–767 (Saccharomyces cerevisiae, UniProt P53131); details: ATPase assay of the truncation; details in supplement
Prp43 1–657 = Prp43 1–657 (Saccharomyces cerevisiae, UniProt P53131); details: ATPase assay of the truncation; details in supplement
His-GFP-tagged Prp43 = His-GFP-tagged Prp43 (S. cerevisiae, UniProt P53131 1-767); assay: pull-down
[2] = target: His10-ZZ-TEV-tagged full length Prp43 (S. cerevisiae, UniProt P53131 1-767); assay: pull-down
Sequence of His10-ZZ-TEV-tagged full length Prp43 (P53131 whole entry): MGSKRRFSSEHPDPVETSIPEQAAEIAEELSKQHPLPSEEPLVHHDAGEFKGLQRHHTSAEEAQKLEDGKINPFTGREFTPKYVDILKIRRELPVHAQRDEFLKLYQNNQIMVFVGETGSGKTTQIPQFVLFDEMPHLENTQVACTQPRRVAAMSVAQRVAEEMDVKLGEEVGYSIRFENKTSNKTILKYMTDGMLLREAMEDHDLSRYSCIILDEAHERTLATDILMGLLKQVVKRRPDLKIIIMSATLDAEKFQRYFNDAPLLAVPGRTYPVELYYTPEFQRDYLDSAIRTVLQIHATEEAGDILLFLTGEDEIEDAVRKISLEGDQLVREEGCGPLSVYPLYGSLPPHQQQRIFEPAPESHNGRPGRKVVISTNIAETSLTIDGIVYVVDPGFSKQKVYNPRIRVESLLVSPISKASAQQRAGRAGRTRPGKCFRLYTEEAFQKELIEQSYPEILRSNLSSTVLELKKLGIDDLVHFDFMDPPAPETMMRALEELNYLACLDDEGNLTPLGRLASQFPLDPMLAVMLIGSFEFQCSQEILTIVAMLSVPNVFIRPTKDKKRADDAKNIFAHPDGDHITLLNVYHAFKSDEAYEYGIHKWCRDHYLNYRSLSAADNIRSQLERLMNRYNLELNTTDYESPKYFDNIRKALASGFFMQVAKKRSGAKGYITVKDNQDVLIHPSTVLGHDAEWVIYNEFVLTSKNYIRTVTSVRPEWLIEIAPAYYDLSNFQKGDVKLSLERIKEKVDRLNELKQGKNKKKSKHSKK

Sequence of His-GFP-tagged Prp43 (P53131 whole entry): as above
Sequence of Prp43 92–767 (P53131 92-767): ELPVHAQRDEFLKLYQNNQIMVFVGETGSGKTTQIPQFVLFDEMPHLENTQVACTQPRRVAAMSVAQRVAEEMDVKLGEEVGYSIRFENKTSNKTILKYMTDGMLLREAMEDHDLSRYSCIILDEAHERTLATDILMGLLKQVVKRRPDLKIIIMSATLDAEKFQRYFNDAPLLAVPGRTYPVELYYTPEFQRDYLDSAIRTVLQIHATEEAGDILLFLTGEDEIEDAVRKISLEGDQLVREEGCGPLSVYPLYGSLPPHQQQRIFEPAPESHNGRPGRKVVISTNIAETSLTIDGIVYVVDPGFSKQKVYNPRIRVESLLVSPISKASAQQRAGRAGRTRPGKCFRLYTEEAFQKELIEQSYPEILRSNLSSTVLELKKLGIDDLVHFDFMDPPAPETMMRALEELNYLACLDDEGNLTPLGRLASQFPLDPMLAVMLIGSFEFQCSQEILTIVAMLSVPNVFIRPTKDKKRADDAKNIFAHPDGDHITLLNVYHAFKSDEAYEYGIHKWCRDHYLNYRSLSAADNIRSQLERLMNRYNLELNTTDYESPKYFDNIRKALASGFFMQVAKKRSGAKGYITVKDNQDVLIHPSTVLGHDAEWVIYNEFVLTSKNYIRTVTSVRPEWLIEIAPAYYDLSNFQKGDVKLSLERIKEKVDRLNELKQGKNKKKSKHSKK
Sequence of Prp43 1–657 (P53131 1-657): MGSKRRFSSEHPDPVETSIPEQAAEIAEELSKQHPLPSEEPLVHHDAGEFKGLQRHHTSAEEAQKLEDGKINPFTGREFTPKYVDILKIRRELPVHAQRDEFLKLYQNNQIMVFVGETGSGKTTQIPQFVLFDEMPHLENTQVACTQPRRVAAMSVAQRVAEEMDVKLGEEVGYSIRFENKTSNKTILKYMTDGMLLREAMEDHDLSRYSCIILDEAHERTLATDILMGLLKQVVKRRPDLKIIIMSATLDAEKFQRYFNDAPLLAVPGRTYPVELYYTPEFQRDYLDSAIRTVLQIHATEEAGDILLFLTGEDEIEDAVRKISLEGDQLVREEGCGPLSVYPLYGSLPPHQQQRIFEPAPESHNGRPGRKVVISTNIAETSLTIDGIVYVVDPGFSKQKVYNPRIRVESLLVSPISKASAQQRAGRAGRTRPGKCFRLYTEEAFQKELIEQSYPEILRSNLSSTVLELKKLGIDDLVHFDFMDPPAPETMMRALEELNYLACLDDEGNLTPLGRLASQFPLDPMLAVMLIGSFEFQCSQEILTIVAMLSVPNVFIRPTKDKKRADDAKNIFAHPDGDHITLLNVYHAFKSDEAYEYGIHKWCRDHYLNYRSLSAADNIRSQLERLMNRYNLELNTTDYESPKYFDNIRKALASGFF

Molecule: fluorescein-labeled 11 nt RNA
- Kd (Prp43): 60 nM
- Kd [1]: 2.3 nM

Molecule: Nc1ncnc2c1ncn2[C@@H]1O[C@H](COP(=O)(O)OP(=O)(O)OP(=O)(O)O)[C@@H](O)[C@H]1O [ATP]
- NADH-coupled ATPase assay (pyruvate kinase / LDH), A340 (Prp43 92–767): the N- and C-terminal truncations of Prp43 themselves show ATPase activity
- NADH-coupled ATPase assay (pyruvate kinase / LDH), A340 (Prp43 1–657): the N- and C-terminal truncations of Prp43 themselves show ATPase activity

- binding result (His-GFP-tagged Prp43): binds
B1: His10-MBP-TEV-tagged Pxr1 1–82 (domain or fragment)
chain: MGLAATRTKQRFGLDPRNTAWSNDTSRFGHQFLEKFGWKPGMGLGLSPMNSNTSHIKVSIKDDNVGLGAKLKRKDKKDEFDN

- binding result (His-GFP-tagged Prp43): binds
B2: His10-MBP-TEV-tagged Sqs1 705–767 (domain or fragment)
chain: VKEGEIVGQNAPEIGNENIGRRMLEKLGWKSGEGLGIQGNKGISEPIFAKIKKNRSGLRHSES

- binding result (His-GFP-tagged Prp43): binds
B3: His10-ZZ-TEV-tagged Cmg1 (natural protein)
chain: MEESKTKRKEDRIDLKNTPPQKKSKRDSTNDETARTSLRSIMPRGYKMMENMGYKEGETLGSNESALKEPIKVEINTKRRGIRAEKPDPSTMNDMQMSEQRFIKRESEMKNNKRLKKIWYRIQKVAFEMMGDSDLYNPGEDPRDFNVLWRSYVMQLNEEVAKNDLNNHSNNDNEDKNNMIPMVNESLEASPAIKGEKFGRPSTLIDCDTSIIGSRITKDTELAELEELSIEKRITKLNIFLRSEKYYCFFCGIKYKDEGDLYEHCPGVNEDDHK

- binding result [2]: binds
B4: MBP-tagged full length Cmg1 (natural protein)
chain: B3 chain

- binding result (His-GFP-tagged Prp43): binds
B5: His10-ZZ-TEV-tagged Spp382 G-patch domain (amino acids 51–110) (domain or fragment)
chain: NAPTISKLTKTYGIGAKLLSSMGYVAGKGLGKDGSGITTPIETQSRPMHNAGLGMFSNTN

- binding result [2]: binds
- binding result (His-GFP-tagged Prp43): binds
B6: His10-MBP-TEV-tagged Cmg1 1–85 (domain or fragment)
chain: MEESKTKRKEDRIDLKNTPPQKKSKRDSTNDETARTSLRSIMPRGYKMMENMGYKEGETLGSNESALKEPIKVEINTKRRGIRAE
